From IntAct's records for PubMed 20494986

B1: Type 3 secretion system chaperone PscG (Pseudomonas aeruginosa (strain ATCC 15692 / PAO1 / 1C / PRS 101 / LMG 12228)), P95435 (parent)
chain: MDTSLIRELAELALAGSGQHCHEEALCIAEWLERLGQDEAARLIRISSLANQGRYQEALAFAHGNPWPALEPWFALCEWHLGLGAALDRRLAGLGGSSDPALADFAAGMRAQVRT
partner: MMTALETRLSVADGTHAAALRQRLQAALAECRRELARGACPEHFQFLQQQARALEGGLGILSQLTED
B2: Type 3 secretion system chaperone PscE (Pseudomonas aeruginosa (strain ATCC 15692 / PAO1 / 1C / PRS 101 / LMG 12228)), Q9I317 (parent)
chain: B1 partner
partner: B1 chain

Variants of: B1
Details: with psce_pseae pscE, Q9I317

| Variant | effect of a mutation on the interaction |
| --- | --- |
| I28S | decreasing interaction |
| I28S;W31S | decreasing interaction |
| L9S | decreasing interaction |
| L5S;L9S | decreasing interaction |
| L5S | decreasing interaction |

Variants of: B2
Details: with pscg_pseae pscG, P95435

| Variant | effect of a mutation on the interaction |
| --- | --- |
| G57D | disrupting interaction |
| L20S | decreasing interaction |
